Measurements: the supplement of paper PMC10724198
± gives the standard deviation of the averaged measurements.

Experiments:
Saccharomyces cerevisiae [1] = experiment: protein stability index of tFT-peptide fusion (C-terminal peptide) (PSI (0-1 scale)); higher = more stable (slower turnover); settings: genetic background: wild type; temperature: 30 C
Saccharomyces cerevisiae [2] = experiment: as above
Protocol: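 MPS profiling in S. cerevisiae of the tFT-X12 degron library: putative degron peptides plus stable controls, 12 aa, fused to the C-terminus of a sfGFP-mCherry timer. Cells are FACS-sorted into 8 mCherry/sfGFP bins and deep-sequenced. PSI runs from 0 (unstable) to 1 (stable). Backgrounds are wild type, das1Δ and doa10Δ at 30 °C, and wild type, das1Δ, cdc34-1 and cdc53-1 at 37 °C; 2-3 technical replicates each.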

[3] = genetic background: cdc34-1, temperature: 37 C
[4] = genetic background: cdc53-1, temperature: 37 C
[5] = genetic background: das1 deletion, temperature: 30 C
[6] = genetic background: das1 deletion, temperature: 37 C
[7] = genetic background: doa10 deletion, temperature: 30 C
[8] = genetic background: wild type, temperature: 30 C
[9] = genetic background: wild type, temperature: 37 C
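Note: PSI is a weighted mean of sequencing reads over stability bins, variants kept only with over 10 reads, mCherry proximal and sfGFP distal, peptide attached via GGGS linker.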

Sequence | protein stability index (Saccharomyces cerevisiae [1]) | protein stability index (Saccharomyces cerevisiae [2]; [3]) | protein stability index (Saccharomyces cerevisiae [2]; [4]) | protein stability index (Saccharomyces cerevisiae [2]; [5]) | protein stability index (Saccharomyces cerevisiae [2]; [6]) | protein stability index (Saccharomyces cerevisiae [2]; [7]) | protein stability index (Saccharomyces cerevisiae [2]; [8]) | protein stability index (Saccharomyces cerevisiae [2]; [9])
VFRYWCGIFCLT | 0.478 ± 0.07 | 0.688 ± 0.052 | 0.701 ± 0.054 | 0.613 ± 0.025 | 0.789 ± 0.045 | 0.528 ± 0.027 | 0.547 ± 0.019 | 0.6715 ± 0.0057
VFSAGFSTISLF | 0.704 ± 0.39 | 0.745 ± 0.037 | 0.792 ± 0.03 | 0.678 ± 0.049 | 0.789 ± 0.012 | 0.6674 ± 0.0061 | 0.666 ± 0.012 | 0.741 ± 0.011
VFSWLAFGFFCS | 0.557 ± 0.091 | 0.647 ± 0.0029 | 0.69 ± 0.012 | 0.61 ± 0.022 | 0.6821 ± 0.0028 | 0.588 ± 0.024 | 0.601 ± 0.023 | 0.642 ± 0.033
VGELYRLRKLHV | 0.313 ± 0.035 | 0.69 ± 0.026 | 0.73 ± 0.013 | 0.607 ± 0.02 | 0.728 ± 0.015 | 0.222 ± 0.02 | 0.249 ± 0.035 | 0.506 ± 0.018
VGHVFLGVVWLV | 0.163 ± 0.013 | 0.44 ± 0.043 | 0.573 ± 0.014 | 0.457 ± 0.031 | 0.6 ± 0.0034 | 0.0977 ± 0.0055 | 0.101 ± 0.013 | 0.0863 ± 0.011
VGLRLSVIFVVI | 0.372 ± 0.038 | 0.265 ± 0.019 | 0.2985 ± 0.0021 | 0.213 ± 0.033 | 0.428 ± 0.027 | 0.195 ± 0.0031 | 0.213 ± 0.027 | 0.391 ± 0.049
VGVIGWGVLGVG | 0.5 ± 0.01 | 0.475 ± 0.04 | 0.548 ± 0.0055 | 0.481 ± 0.011 | 0.541 ± 0.011 | 0.4866 ± 0.00011 | 0.481 ± 0.013 | 0.536 ± 0.0097
VGVVGVRVLVVV | 0.2026 ± 0.0015 | 0.0407 ± 0.0012 | 0.1 ± 0.018 | 0.166 ± 0.032 | 0.19025 ± 0.00017 | 0.142 ± 0.01 | 0.154 ± 0.024 | 0.17315 ± 8e-05
VIGSFVRVFGIM | 0.512 ± 0.12 | 0.698 ± 0.024 | 0.751 ± 0.018 | 0.617 ± 0.017 | 0.728 ± 0.026 | 0.489 ± 0.041 | 0.506 ± 0.0097 | 0.6657 ± 0.00035
VILMFELFGVRI | 0.331 ± 0.029 | 0.324 ± 0.04 | 0.457 ± 0.019 | 0.355 ± 0.058 | 0.4304 ± 0.0029 | 0.327 ± 0.019 | 0.313 ± 0.051 | 0.422 ± 0.054
VLCHLVLYVGDK | 0.4359 ± 0.0017 | 0.454 ± 0.013 | 0.569 ± 0.022 | 0.383 ± 0.035 | 0.588 ± 0.013 | 0.3413 ± 0.0027 | 0.397 ± 0.052 | 0.534 ± 0.029
VLDLLRHGFLWQ | 0.761 ± 0.071 | 0.686 ± 0.051 | 0.736 ± 0.0032 | 0.706 ± 0.024 | 0.727 ± 0.011 | 0.689 ± 0.017 | 0.6984 ± 0.0056 | 0.7119 ± 0.0068
VLFFVLGVLVCL | 0.397 ± 0.043 | 0.319 ± 0.019 | 0.429 ± 0.019 | 0.348 ± 0.027 | 0.471 ± 0.01 | 0.319 ± 0.021 | 0.338 ± 0.019 | 0.441 ± 0.026
VLFIKKTLMRIQ | 0.396 ± 0.0084 | 0.558 ± 0.008 | 0.685 ± 0.0057 | 0.621 ± 0.0064 | 0.66 ± 0.015 | 0.268 ± 0.025 | 0.331 ± 0.027 | 0.537 ± 0.045
VLFVLFASWFPR | 0.487 ± 0.0066 | 0.453 ± 0.023 | 0.4772 ± 0.002 | 0.375 ± 0.027 | 0.5458 ± 0.0053 | 0.3679 ± 0.0025 | 0.361 ± 0.024 | 0.529 ± 0.047
VLFVVLVASGLG | 0.299 ± 0.023 | 0.215 ± 0.015 | 0.312 ± 0.007 | 0.204 ± 0.032 | 0.4008 ± 0.00043 | 0.163 ± 0.01 | 0.206 ± 0.026 | 0.4012 ± 0.0037
VLPQSVWILVRV | 0.2609 ± 0.0026 | 0.0621 ± 0.016 | 0.0737 ± 0.0062 | 0.172 ± 0.024 | 0.236 ± 0.012 | 0.144 ± 0.021 | 0.155 ± 0.032 | 0.1936 ± 0.0014
VLSFWAFLFLLF | 0.335 ± 0.011 | 0.428 ± 0.012 | 0.412 ± 0.026 | 0.398 ± 0.023 | 0.488 ± 0.015 | 0.31 ± 0.013 | 0.282 ± 0.0089 | 0.3785 ± 0.0022
VLSWRAWGESGV | 0.445 ± 0.024 | 0.387 ± 0.02 | 0.426 ± 0.015 | 0.466 ± 0.032 | 0.392 ± 0.014 | 0.493 ± 0.03 | 0.468 ± 0.011 | 0.382 ± 0.007
VMFWRGVWLSFC | 0.268 ± 0.03 | 0.313 ± 0.036 | 0.361 ± 0.049 | 0.45 ± 0.019 | 0.572 ± 0.03 | 0.23 ± 0.0033 | 0.197 ± 0.016 | 0.335 ± 0.011

Sequence | protein stability index (Saccharomyces cerevisiae [1]) | protein stability index (Saccharomyces cerevisiae [2]; [3]) | protein stability index (Saccharomyces cerevisiae [2]; [4]) | protein stability index (Saccharomyces cerevisiae [2]; [5]) | protein stability index (Saccharomyces cerevisiae [2]; [6]) | protein stability index (Saccharomyces cerevisiae [2]; [7]) | protein stability index (Saccharomyces cerevisiae [2]; [8]) | protein stability index (Saccharomyces cerevisiae [2]; [9])
VNTRIVVRMRHL | 0.433 ± 0.014 | 0.638 ± 0.056 | 0.701 ± 0.015 | 0.64 ± 0.014 | 0.704 ± 0.02 | 0.339 ± 0.0049 | 0.348 ± 0.013 | 0.529 ± 0.0082
VNWGFLVLLFQL | 0.324 ± 0.011 | 0.446 ± 0.017 | 0.513 ± 0.025 | 0.39 ± 0.035 | 0.561 ± 0.018 | 0.219 ± 0.029 | 0.25 ± 0.021 | 0.4111 ± 0.00064
VPLHPPPTVPYI | 0.704 ± 0.03 | 0.674 ± 0.063 | 0.728 ± 0.014 | 0.66 ± 0.015 | 0.7244 ± 0.0069 | 0.679 ± 0.011 | 0.675 ± 0.034 | 0.7038 ± 0.0066
VPLVQRARLRLF | 0.146 ± 0.025 | 0.639 ± 0.059 | 0.715 ± 0.02 | 0.607 ± 0.027 | 0.732 ± 0.026 | 0.109 ± 0.015 | 0.114 ± 0.012 | 0.206 ± 0.028
VPRLFSVIVVPV | 0.488 ± 0.052 | 0.517 ± 0.04 | 0.5325 ± 0.0033 | 0.39 ± 0.033 | 0.5519 ± 0.0049 | 0.359 ± 0.012 | 0.389 ± 0.03 | 0.536 ± 0.018
VRFRLLNVLASA | 0.468 ± 0.056 | 0.528 ± 0.0073 | 0.518 ± 0.048 | 0.395 ± 0.026 | 0.5582 ± 0.0043 | 0.34 ± 0.015 | 0.389 ± 0.021 | 0.5305 ± 0.0031
VRGSFRRCLSIA | 0.1981 ± 0.0011 | 0.596 ± 0.011 | 0.713 ± 0.021 | 0.623 ± 0.015 | 0.719 ± 0.012 | 0.118 ± 0.027 | 0.142 ± 0.017 | 0.325 ± 0.011
VRRSVGGWSKVG | 0.339 ± 0.022 | 0.638 ± 0.011 | 0.724 ± 0.023 | 0.636 ± 0.029 | 0.7327 ± 0.0047 | 0.158 ± 0.023 | 0.194 ± 0.037 | 0.505 ± 0.013
VRSTFVLGRWFA | 0.228 ± 0.062 | 0.57 ± 0.0089 | 0.711 ± 0.0072 | 0.653 ± 0.029 | 0.7495 ± 0.0021 | 0.133 ± 0.0064 | 0.159 ± 0.018 | 0.312 ± 0.083
VSFHFLLLVPCC | 0.105 ± 0.082 | 0.0285 ± 0.0095 | 0.0251 ± 0.0019 | 0.0609 ± 0.027 | 0.0732 ± 0.023 | 0.044 ± 0.0035 | 0.0565 ± 0.02 | 0.0701 ± 0.0096
VSFHLGVIFALS | 0.39 ± 0.0086 | 0.547 ± 0.018 | 0.5268 ± 0.0037 | 0.401 ± 0.026 | 0.536 ± 0.0072 | 0.268 ± 0.0063 | 0.343 ± 0.021 | 0.46 ± 0.013
VSFLLLSYLCSF | 0.266 ± 0.012 | 0.341 ± 0.0084 | 0.389 ± 0.01 | 0.279 ± 0.031 | 0.46 ± 0.011 | 0.172 ± 0.0023 | 0.187 ± 0.019 | 0.322 ± 0.0035
VSWDMLYFWFIQ | 0.416 ± 0.002 | 0.664 ± 0.089 | 0.693 ± 0.041 | 0.603 ± 0.059 | 0.764 ± 0.033 | 0.307 ± 0.017 | 0.304 ± 0.028 | 0.554 ± 0.016
VSYAVIVLVFKG | 0.329 ± 0.037 | 0.211 ± 0.056 | 0.317 ± 0.051 | 0.234 ± 0.026 | 0.463 ± 0.018 | 0.2 ± 0.022 | 0.22 ± 0.023 | 0.339 ± 0.04
VTVWLISRVTGL | 0.435 ± 0.0085 | 0.579 ± 0.034 | 0.67938 ± 0.00055 | 0.496 ± 0.017 | 0.647 ± 0.017 | 0.286 ± 0.035 | 0.314 ± 0.01 | 0.549 ± 0.018
VVCFGCLAFFLG | 0.497 ± 0.0057 | 0.579 ± 0.0076 | 0.613 ± 0.011 | 0.461 ± 0.021 | 0.624 ± 0.044 | 0.412 ± 0.043 | 0.409 ± 0.028 | 0.533 ± 0.027
VVFILLFFVFCR | 0.294 ± 0.019 | 0.253 ± 0.027 | 0.271 ± 0.016 | 0.24 ± 0.031 | 0.371 ± 0.0061 | 0.296 ± 0.013 | 0.25 ± 0.021 | 0.314 ± 0.022
VVGITIMVFIIT | 0.333 ± 0.069 | 0.138 ± 0.0028 | 0.195 ± 0.065 | 0.184 ± 0.045 | 0.312 ± 0.0043 | 0.15 ± 0.018 | 0.185 ± 0.027 | 0.326 ± 0.046
VVIGAVLFVVVR | 0.29 ± 0.012 | 0.0736 ± 0.0063 | 0.21 ± 0.015 | 0.157 ± 0.028 | 0.291 ± 0.0065 | 0.12 ± 0.0087 | 0.134 ± 0.035 | 0.25 ± 0.005
